Measured values published in patent US6670167.

System: T1, Syntide-2, synthetic substrate peptide PLARTLSVAGLPGKK
T1 sequence: PLARTLSVAGLPGKK

Proteolytically cleaved Chk1, preparation HA2-022
Activity: +38 fold | Rate/min (/min (at 2 nM enzyme)): 0.0208 | activity comparison: the cleaved preparation was 38 fold more active than the non-cleaved preparation
